Key:
PDL1 (Fc-cut) antigen [1] = molecular target: PDL1 (Fc-cut) antigen (UniProt Q9NZQ7); assay: ELISA on coated PDL1 (Fc-cut), VHH secondary antibody; PBS blank 0.181 / 0.212
PDL1 (Fc-cut) antigen [2] = molecular target: PDL1 (Fc-cut) antigen (UniProt Q9NZQ7); assay: ELISA on coated PDL1 (Fc-cut), IgG (H+L) secondary antibody; PBS blank 0.121 / 0.102
[3] = molecular target: PDL1 expressed on recombinant CHO cells (CHO-K1/PDL1; aAPC CHO-PDL1) (UniProt Q9NZQ7)
Chain of PDL1 expressed on recombinant CHO cells (CHO-K1/PDL1; aAPC CHO-PDL1) (Q9NZQ7 19-290 limits assumed): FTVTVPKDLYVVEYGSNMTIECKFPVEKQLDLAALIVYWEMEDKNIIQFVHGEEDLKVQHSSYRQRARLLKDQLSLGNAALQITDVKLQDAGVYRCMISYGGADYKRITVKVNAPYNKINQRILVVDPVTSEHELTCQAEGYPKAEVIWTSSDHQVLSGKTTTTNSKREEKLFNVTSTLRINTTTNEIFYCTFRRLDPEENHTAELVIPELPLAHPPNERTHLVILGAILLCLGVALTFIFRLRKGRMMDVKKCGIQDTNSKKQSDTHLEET

Chain of PDL1 (Fc-cut) antigen (Q9NZQ7 19-238 limits assumed): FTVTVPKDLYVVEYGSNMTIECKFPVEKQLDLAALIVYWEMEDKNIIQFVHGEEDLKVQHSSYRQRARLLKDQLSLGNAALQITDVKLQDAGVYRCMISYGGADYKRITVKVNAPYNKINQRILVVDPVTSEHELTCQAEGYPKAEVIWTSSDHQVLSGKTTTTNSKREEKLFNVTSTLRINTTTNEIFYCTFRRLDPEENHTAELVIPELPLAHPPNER

Substance: Unimmunized serum
- OD450, serum 1:1K, well 1 of 2 (PDL1 (Fc-cut) antigen [1]): 0.176
- OD450, serum 1:1K, well 2 of 2 (PDL1 (Fc-cut) antigen [1]): 0.166
- OD450, serum 1:2K, well 1 of 2 (PDL1 (Fc-cut) antigen [1]): 0.194
- OD450, serum 1:2K, well 2 of 2 (PDL1 (Fc-cut) antigen [1]): 0.213
- OD450, serum 1:4K, well 1 of 2 (PDL1 (Fc-cut) antigen [1]): 0.207
- OD450, serum 1:4K, well 2 of 2 (PDL1 (Fc-cut) antigen [1]): 0.236
- OD450, serum 1:8K, well 1 of 2 (PDL1 (Fc-cut) antigen [1]): 0.205
- OD450, serum 1:8K, well 2 of 2 (PDL1 (Fc-cut) antigen [1]): 0.236
- OD450, serum 1:16K, well 1 of 2 (PDL1 (Fc-cut) antigen [1]): 0.232
- OD450, serum 1:16K, well 2 of 2 (PDL1 (Fc-cut) antigen [1]): 0.249
- OD450, serum 1:32K, well 1 of 2 (PDL1 (Fc-cut) antigen [1]): 0.224
- OD450, serum 1:32K, well 2 of 2 (PDL1 (Fc-cut) antigen [1]): 0.253
- OD450, serum 1:64K, well 1 of 2 (PDL1 (Fc-cut) antigen [1]): 0.201
- OD450, serum 1:64K, well 2 of 2 (PDL1 (Fc-cut) antigen [1]): 0.224
- OD450, serum 1:1K, well 1 of 2 (PDL1 (Fc-cut) antigen [2]): 0.189
- OD450, serum 1:1K, well 2 of 2 (PDL1 (Fc-cut) antigen [2]): 0.176
- OD450, serum 1:2K, well 1 of 2 (PDL1 (Fc-cut) antigen [2]): 0.145
- OD450, serum 1:2K, well 2 of 2 (PDL1 (Fc-cut) antigen [2]): 0.159
- OD450, serum 1:4K, well 1 of 2 (PDL1 (Fc-cut) antigen [2]): 0.124
- OD450, serum 1:4K, well 2 of 2 (PDL1 (Fc-cut) antigen [2]): 0.12
- OD450, serum 1:8K, well 1 of 2 (PDL1 (Fc-cut) antigen [2]): 0.107
- OD450, serum 1:8K, well 2 of 2 (PDL1 (Fc-cut) antigen [2]): 0.116
- OD450, serum 1:16K, well 1 of 2 (PDL1 (Fc-cut) antigen [2]): 0.118
- OD450, serum 1:16K, well 2 of 2 (PDL1 (Fc-cut) antigen [2]): 0.12
- OD450, serum 1:32K, well 1 of 2 (PDL1 (Fc-cut) antigen [2]): 0.125
- OD450, serum 1:32K, well 2 of 2 (PDL1 (Fc-cut) antigen [2]): 0.118
- OD450, serum 1:64K, well 1 of 2 (PDL1 (Fc-cut) antigen [2]): 0.141
- OD450, serum 1:64K, well 2 of 2 (PDL1 (Fc-cut) antigen [2]): 0.115

Substance: Atezolizumab (antibody)
- EC50 of the PD1/PDL1 Block Assay (luciferase fold of induction, Jurkat-PD-1-NFAT-Luc + aAPC CHO-PDL1) [3]: 6.04 µg/mL

Reference: patent US20250136695A1
